Measured values from patent US7732592B2, “ALK protein tyrosine kinase, cells and methods embodying and using same” (New York University, priority 2003, dated 2010).

How the values were obtained:
[1] = system: MEF-NPM-ALK cells; test: Morphology of MEF-NPM-ALK cells after infection; type: cell-based
Description: Since NPM-ALK expression in MEF cells leads to relevant morphological changes including cell elongation, bipolarized formations and loose plate attachment, the effect of inhibition of NPM-ALK expression on the phenotype of these cells was then studied. […] Furthermore, highly enriched GFP^+, puromycin resistant pSRG-A5MEF-NPM-ALK cells injected into athymic Nu/Nu mice (1×10^6 cells) grew poorly compared to control infected cells (FIG. 9 D).

[2] = system: ALK receptor (ALK-R); test: Co-transfection of pSUPER shRNA vectors with Pallino ALK-R in HEK-293T cells, Western blot; type: cell-based; conditions: transfected HEK-293T cells
Method: (§1) FIG. 8. Selection of anti-ALK shRNA. […] HEK-293T were co-transfected with Pallino NPM-ALK (2 μg) and one of six different pSUPER vectors carrying shRNA specific for ALK sequences (pS-A1-6)(8 μg). Cells were lysed 72 hours post-transfection and immunoblotted with the indicated antibodies. −=no transfection; A pSUPER-shRNA carrying a p53 specific sequence was used a unrelated control. (pS-p53) (B) ALK5 (A5) inhibits ATIC-ALK protein expression. HEK-293T were co-transfected with Pallino ATIC-ALK and pSUPER-ALK shRNA interfering sequences as above. Expression of ATIC-ALK protein was determined by Western blot analysis as described above. (C) ALK5 (A5) inhibits ALK receptor (ALK-R) protein expression. HEK-293T cells were co-transfected with Pallino ALK-R and pSUPER-ALK shRNA interfering sequences as above.
(§2) Transfections of HEK-293T, GP-293, and MEF Tet-Off cells were performed with Effectene reagent (Qiagen, Valencia, Calif., USA), according to the manufacturer's instructions.
(§3) For Western Blot analysis, cells were lysed (50 mM Tris-HCl, pH 7.4, 150 mM NaCl, 0.1% Triton X-100, 5 mM EDTA, 1 mM Na3VO4, and 1 mM phenylmethyl sulfonyl fluoride and protease inhibitors). Total protein lysates (20 μg) were electrophoresed in SDS-PAGE gel and transferred onto nitrocellulose membranes. […]

[3] = system: NPM-ALK; test: NPM-ALK protein expression in MEF NPM-ALK Tet-Off cells after retroviral infection, Western blot; type: cell-based
Method: FIG. 9. Anti-ALK siRNA inhibits NPM-ALK-mediated transformation of MEF cells. (A) Suppression of NPM-ALK expression leads to down-regulation of known downstream targets of ALK. MEF NPM-ALK Tet-Off cells were infected with pSRG-A5 virus, transduction efficiency was assessed 72 hours post-infection by FACS analysis of GFP (40%). pSRG-A5-infected cells were further enriched by selection with 1 mg/ml puromycin for 1 week (90%). NPM-ALK expression was inhibited by doxycyclin withdrawn. Protein expression was evaluated culturing (72 hr) semi-confluent cells in absence of doxycyclin. (B) shRNA A-5 expression leads to G0/G1 cell cycle arrest. DNA content analysis was performed in cells grown to confluence and kept in 0.2% serum medium for 72 hours in presence of absence of doxycyclin. Cells were then listed and analysed by Western blotting with indicated antibodies. […] Tumor growth was monitored weekly for 4 weeks. […]
Retroviral supernatants were produced by co-transfection of GP-293 packaging cells with pSRGAx and pVSV-G (Clontech, Palo Alto, Calif., USA); virus-containing supernatants were collected at 48, 72 and 90 hours, filtrated and concentrated by centrifugation. […] Transfection and infection efficiencies were calculated using the percentage of GFP positive cells, identified using fluorescence microscopy (Leica IM RE2) or flow cytometry (FACSCalibur, BD Biosciences, San Josè, Calif., USA). […]

[4] = system: TS cells; test: Cell death of sorted GFP-positive TS cells by microscopy; type: cell-based, human; conditions: sorted TS cells (>95% GFP), 24 hr after cell sorting
Method: FIG. 11. Anti-ALK siRNA inhibits growth and induces cell death in TS cells. ShRNA A5 leads ALK+ ALCL cells to cell death. Human TS cells were transduced with pSRG or pSRG-A5 constructs, and […], GFP-positive cells were sorted using MoFo sorter. (A) Highly enriched GFP+ cells (>95%) were evaluated (24 hours after sorting) using a light or fluorescent inverted microscope, (bright field: left panels). 5×10^3/well cells were plated (96-well plate) and the percentage of alive cells was calculated overtime (B). Total number of live cells was also calculated at day 3, 4 and 6 after sorting (C).
To study whether ALK siRNA could promote cell death, highly enriched A5-GFP-positive TS cells by cell sorting (>95% GFP) were evaluated by microscopy. […] These findings were confirmed with enumeration of viable cells by trypan blue exclusion (FIG. 11B) and proliferating cell quantitation using total cell counts (FIG. 11C).

[5] = system: NPM-ALK; test: Co-transfection of pSUPER shRNA vectors with Pallino-NPM-ALK in HEK-293T cells, Western blot; type: cell-based; conditions: HEK-293T co-transfected with Pallino-NPM-ALK; after 48 hrs from transfection
Method: as §1, with “Cells were lysed 72 hours post-transfection and immunoblotted with the indicated antibodies. −=no transfection; A pSUPER-shRNA carrying a p53 specific sequence was used a unrelated control.” left out
as §2
For Western Blot analysis, cells were lysed (50 mM Tris-HCl, pH 7.4, 150 mM NaCl, 0.1% Triton X-100, 5 mM EDTA, 1 mM Na3VO4, and 1 mM phenylmethyl sulfonyl fluoride and protease inhibitors). Total protein lysates (20 μg) were electrophoresed in SDS-PAGE gel and transferred onto nitrocellulose membranes. The filters were first blocked (5% low fat milk in PBS with 0.1% Tween 20; 1 h at RT), and then incubated with the primary antibodies for 1 hour at room temperature. […]

[6] = system: ATIC-ALK; test: Co-transfection of pSUPER shRNA vectors with Pallino ATIC-ALK in HEK-293T cells, Western blot; type: cell-based; conditions: transfected HEK-293T cells
Method: as §1, §2, §3

B1: A5: short hairpin oligonucleotide against cytoplasmic domain of ALK, SEQ ID NO: 5; in pSUPER vector (nucleic acid)
chain: GATCCCCGGGCGAGCTACTATAGAAATTCAAGAGATTTCTATAGTAGCTCGCCCTTTTTGGAAA
cellular morphology (transformed phenotype) [1]: regained their normal pre-transformed cellular features | expression of ALK receptor [2]: successfully abrogate expression | NPM-ALK protein expression ([3]; MEF NPM-ALK Tet-Off after doxycyclin withdrawal, proportional to percentage of GFP positive cells): significant down-regulation | NPM-ALK level in MEF-NPM-ALK cells after infection ([3]; MEF-NPM-ALK cells): very low levels | cells with shrunken, picnotic nuclei lacking detectable GFP expression [4]: > 50% | down-regulation of the protein level of NPM-ALK [5]: > 90% | expression of ATIC-ALK [6]: successfully abrogate expression
